The chains are these.
B1: R495HS2: hGCase based on the Cerezyme sequence (R495H) but produced in S2 cells, His8-tagged; Seq. Id. No. 1 (protein, listed as Homo sapiens)
chain: ARPCIPKSFGYSSVVCVCNATYCDSFDPPTFPALGTFSRYESTRSGRRMELSMGPIQANHTGTGLLLTLQPEQKFQKVKGFGGAMTDAAALNILALSPPAQNLLLKSYFSEEGIGYNIIRVPMASCDFSIRTYTYADTPDDFQLHNFSLPEEDTKLKIPLIHRALQLAQRPVSLLASPWTSPTWLKTNGAVNGKGSLKGQPGDIYHQTWARYFVKFLDAYAEHKLQFWAVTAENEPSAGLLSGYPFQCLGFTPEHQRDFIARDLGPTLANSTHHNVRLLMLDDQRLLLPHWAKVVLTDPEAAKYVHGIAVHWYLDFLAPAKATLGETHRLFPNTMLFASEACVGSKFWEQSVRLGSWDRGMQYSHSIITNLLYHVVGWTDWNLALNPEGGPNWVRNFVDSPIIVDITKDTFYKQPMFYHLGHFSKFIPEGSQRVGLVASQKNDLDAVALMHPDGSAVVVVLNRSSKDVPLTIKDPAVGFLETISPGYSIHTYLWHRQ
modifications: His8 tag
B2: imiglucerase (protein, UniProt P04062 40-536, looked up, variant R495H)
Lysosomal acid …: B1 chain
modifications: imiglucerase; CHO-produced
notes: Commercially available Cerezyme (imiglucerase, Genzyme), hGCase R495H produced in CHO cells
B3: L34Q: recombinant human β-glucocerebrosidase variant R495H/L34Q, S2 cells; Seq. Id. No. 6 (protein, listed as Homo sapiens)
chain: B1 chain with L34Q
notes: recombinant human β-glucocerebrosidase variant R495H/L34Q, S2 cells; Id; No. 6
B4: F31Y: recombinant human β-glucocerebrosidase variant R495H/F31Y, S2 cells; Seq. Id. No. 5 (protein, listed as Homo sapiens)
chain: B1 chain with F31Y
notes: recombinant human β-glucocerebrosidase variant R495H/F31Y, S2 cells; Id; No. 5
B5: M53T/P55T: recombinant human β-glucocerebrosidase variant R495H/M53T/P55T, S2 cells; Seq. Id. No. 7 (protein, listed as Homo sapiens)
chain: B1 chain with M53T, P55T
notes: recombinant human β-glucocerebrosidase variant R495H/M53T/P55T, S2 cells; Id; No. 7
B6: K321N: Amicus single mutant hGCase R495H/K321N produced in S2 cells; Seq. Id. No. 2 (protein, listed as Homo sapiens)
chain: B1 chain with K321N
notes: Amicus single mutant hGCase R495H/K321N produced in S2 cells; Id; No. 2
B7: K321N/H145L: Amicus double mutant hGCase R495H/K321N/H145L produced in S2 cells; Seq. Id. No. 3 (protein, listed as Homo sapiens)
chain: B1 chain with H145L, K321N
notes: Amicus double mutant hGCase R495H/K321N/H145L produced in S2 cells; Id; No. 3
B8: I5N: recombinant human β-glucocerebrosidase variant R495H/I5N, S2 cells; Seq. Id. No. 4 (protein, listed as Homo sapiens)
chain: B1 chain with I5N
notes: recombinant human β-glucocerebrosidase variant R495H/I5N, S2 cells; Id; No. 4

Positions count from the first letter of the chain named. Names may count otherwise. “And” between values parts separate entries of the source, which are not always exact repeats. Equal entries are not always repeated.

Tested on in the first data set: not listed separately
As to the kind of experiment: Determination of the kinetic parameters (Michaelis-Menten) with artificial substrate. It is filed as biochemical. The settings on record: protein concentration used: 25 nM. The method, then: The kinetic parameters were examined using the artificial substrate resorufin-β-glucopyranoside (Sigma-Aldrich). For the determination, final concentrations of substrate ranging from 4-500 μM were tested. The assay followed the activity assay instructions in section 2.3.5. 25 nM final protein concentration was used for each construct. The incubation time was set to 30 min to ensure measurements in the linear signal range. The kinetics were evaluated and plotted according to Michaelis-Menten (Cornish-Bowden, 2013; Johnson, 2015). KM, Vmax was calculated by GraphPad Prism7 applying the Michaelis-Menten fit equation provided by the program. The equation model follows: […]
with: • KM: Michaelis-Menten constant [μM] • Vmax: maximum velocity of reaction [μM/min]
The kinetic parameter kcat is defined as the catalytic constant, representing the turnover number of substrate to product per time unit (here per second) (Eisenthal et al., 2007). kcat can be calculated as follows: […]
with: • kcat: turnover number [min-1] • Vmax: maximum velocity of reaction [μM/min] • [E]tot.: total enzyme concentration [nM]
Another kinetic key parameter to describe the catalytic efficiency of enzymes is the parameter kcat/KM, measured in [μM−1*s−1] in this work (Eisenthal et al., 2007).
Determining enzyme kinetic key parameters gives solid information about the efficiency and efficacy of an enzyme and how certain mutations can impact its functionality. For the determination and comparison of the enzymatic performances, KM, Vmax and kcat as well as kcat/KM were calculated for the different hGCase variants, respectively (Eisenthal et al., 2007). The according assay was performed as described in section 2.5.5, all measured with the artificial substrate res-3-glc. KM and Vmax determination for representative mutant M53T/P55T was done applying the Michaelis-Menten curve fit (GraphPad Prism7; see equation 4) as shown in the following.
The kinetic raw data is depicted in FIG. 5 (A) with progression curves following pseudo first order in a linear measurement range with a good reproducibility and low variance. The slopes of the progression curves can be replotted, with velocities V [μM/min] plotted as a function of substrate concentration [S] applied, resulting in a typical course of a Michaelis-Menten curve (Cornish-Bowden, 2013; Johnson, 2015).
A word on the kcat: it is the number of substrate molecules converted per active site and unit of time at saturation. In the case of B1, the catalytic constant (kcat) was 0.05 s⁻¹.

On to B2, for which the kcat was determined as 0.09 s⁻¹.

For the molecule B3, the kcat was determined as 0.11 s⁻¹.

For the molecule B4, the kcat was found to be 0.07 s⁻¹.

On to B5, for which the kcat amounted to 0.09 s⁻¹.

Regarding B6, the kcat was determined as 0.09 s⁻¹.

For the molecule B7, the kcat came out at 0.09 s⁻¹.

On to B8, for which the kcat was 0.09 s⁻¹.

Staying with this data set, now noted: res-β-glc 4-500 μM, 25 nM protein.
For orientation: Km means the substrate concentration at which the rate is half of its maximum. As a reminder, the Vmax is the top rate of the reaction or transport when substrate is in excess. Regarding B1, the Km was found to be 189 ± 45.5 µM; the Vmax was 0.08 ± 0.01 µM/min and 0.08 µM/min.

Take B2: the Km came out at 131 µM and the Vmax came out at 0.14 µM/min.

Take B3: the Km came out at 143 µM; the Vmax was 0.17 ± 0.01 µM/min and 0.17 µM/min.

Regarding B4, the Km is 96.6 µM and the Vmax is 0.11 µM/min.

In the case of B5, the Km is 100 ± 15.8 µM; the Vmax is 0.13 ± 0.01 µM/min and 0.13 µM/min.

In the case of B6, the Km came to 131 µM and the Vmax stood at 0.14 µM/min.

For the molecule B7, the Michaelis-Menten constant (Km) was 158 µM and 156 µM; the Vmax stood at 0.13 µM/min.

With B8, the Km came to 118 µM and the Vmax turned out to be 0.14 µM/min.

Another data set has as its target hGCase. As to the kind of experiment: Inhibition of hGCase using conditurol-β-epoxide (CBE), IC50 determination. The class given is biochemical, human. The settings on record: irreversible inhibitor conditurol-β-epoxide on the named hGCase variant; 25 nM protein, 10 min pre-incubation, 20 μM res-β-glc. How it is done: CBE is an irreversible inhibitor of glucocerebrosidases which covalently binds to the active site of the enzyme (Liou et al., 2006).
A stock solution of 100 mM CBE in H2Oultrapure was prepared. For IC50 determination, CBE concentrations ranging from 0.04-2500 μM were tested. Again, the final enzyme concentration was 25 nM. After adding the inhibitor, the enzyme was pre-incubated for 10 min before initializing the activity measurement by adding the substrate (20 μM).
IC50 evaluations were done in the same manner as described for IFG (see section above). The IC50 calculations were done using GraphPad Prism7 following equation 9.
To determine whether the active binding site of an enzyme is compromised or altered, IC50 values were calculated for active site inhibitor and compared. In this work, the natural occurring GCase inhibitor isofagomine (IFG) and conditurol-β-epoxide (CBE) were used. IFG is known as a reversible inhibitor, interacting with the active site of the GCase enzyme, whereas CBE is an irreversible inhibitor of GCase (Powe et al., 2006). The IC50 of an enzyme is defined as the concentration of an inhibitor, where the response, in this case the enzyme activity, is reduced by half (Kalliokoski et al., 2013). Both assays were conducted as described in section 2.5.6. The inhibitor profiles of M53T/P55T using IFG and CBE as well as the IC50 profiles of all residual mutants combined are shown in FIG. 4.
The raw data was plotted by transforming the applied IFG/CBE concentration to a logarithmic scale (x-axis, FIG. 4) and by normalizing the activity signal with highest signal of each data set to 100% (defined with apparent inhibitor concentration of 10-12 μM, equal to no inhibitor). IC50 values were calculated using GraphPad Prism7 following equation 9.
For orientation: IC50 means the concentration needed to halve the response being measured. A higher IC50 goes with lower potency. With B1, inhibition was half-maximal at 55 ± 3 µM (IC50).

Molecule B2 came in with an IC50 of 60 ± 3 µM.

Consider B3, for which the IC50 worked out at 106 µM.

B4 displayed an IC50 of 60 ± 3 µM.

In the case of B5, the concentration for half-maximal inhibition (IC50) is ~76 µM and 76 µM.

Molecule B6 returned an IC50 of 28 µM.

The molecule B7 yielded an IC50 of 35 µM.

Tested on in the next data set: not listed separately
The data set can be described thus: Thermal shift assay via nanoDSF measurement (unfolding temperature). It is filed as physicochemical. The settings on record: Prometheus NT.Plex, 3° C./min, 0.06-0.5 mg/ml. The method, then: The thermal shift assay was performed via nanoDSF (differential scanning fluorimetry) measurements using Prometheus NT.Plex nanoDSF (NanoTemper Technologies). The measurement was initialized using the software PR.ThermoControl. Prometheus can precisely characterize samples by measuring the thermal unfolding, chemical denaturation and aggregation within one single run (NanoTemper Technologies, 2019). By gradually heating the sample until reaching 95° C., the protein unfolds. Thereby, the chemical environment of tryptophan residues changes (change in intrinsic tryptophan fluorescence of protein due to more aqueous environment), causing a red-shift in fluorescence (tryptophan fluorescence emission shift). By plotting the fluorescence ratio 350/330 nm against the temperature, the melting temperature Tm can be determined. Calculating the first derivative of raw data gives a peak curve with its maximum indicating the unfolding temperature Tm.
For the sample preparation, a concentration of 0.5 mg/ml was adjusted for the hGCase mutants. For variant I5N and R495HS2, protein concentrations of 0.075 mg/ml (I5N) and 0.06 mg/ml (R495HS2) were applied due to low protein yields. 15 μl total sample volume was uptaken in each capillary of the capillary rack (Prometheus NT.Plex Capillary Chips, NanoTemper) and placed in the device. The excitation power was adjusted to 20-80%, depending on the applied protein concentration. The gradually heating was set to 3° C./min until reaching 95° C. (20° C. was set as starting temperature). The evaluation and calculation of the first derivative was done using the NanoTemper PR.ThermoControl software, the final evaluation and graphing was done using the PR.StabilityAnalysis software.
On the one hand, a successively increasing temperature gradient was applied to measure melting temperatures of protein molecules via nanoDSF (differential scanning fluorimetry) measurement using Prometheus NT.Plex (NanoTemper Technologies, 2019). The sample is gradually heated by increasing the temperature until reaching 95° C. Thereby, the protein unfolds and tryptophan residues experience a change in chemical environment (exposure to a more aqueous environment), which changes the intrinsic tryptophan fluorescence of the protein, causing a red shift in the fluorescent spectrum (350/330 nm=tryptophan fluorescence emission shift) (Schubert, 2015). In FIG. 1, typical melting curves of such an unfolding experiment are shown.
In the upper section of the graphs (FIGS. 1 (A) and (B)), the raw data (progression curves) measured with nanoDSF is plotted, indicating the shift in the fluorescence ratio 350/330 nm during the course of the measurement with increasing temperature. The calculation of the first derivative, giving peak curves (lower section of graphs in (A) and (B)), was done according to default settings of the Software PR.StabilityAnalysis (table 2). Peak maxima (thermal unfolding transition midpoint) indicate the unfolding temperature Tm, where half of the proteins are unfold (Schubert, 2015).
For B1, the “unfolding temperature Tm” value was 54.6 °C and 54.6 ± 0.0 °C.

As to B2, the “unfolding temperature Tm” value amounted to 55.2 ± 0.0 °C.

Consider B3, for which the “unfolding temperature Tm” value worked out at 55.2 ± 0.0 °C.

In the case of B4, the “unfolding temperature Tm” value came out at 55.1 ± 0.1 °C.

On to B5, for which the “unfolding temperature Tm” value stood at 55.3 ± 0.1 °C.

Turning to B6, the “unfolding temperature Tm” value is 56.2 ± 0.1 °C.

B7: the “unfolding temperature Tm” value is 57.3 ± 0.0 °C.

Regarding B8, the “unfolding temperature Tm” value came to 54.8 ± 0.4 °C.
